Source: patent publication US20180147257A1 (Stanford University, published 2018)

Target: T1, PDL1 displayed on yeast cells (UniProt Q9NZQ7 19-238, limits assumed)
T1 construct: Control for the yeast display staining; also called closest CD277 structural homologue
Assay: FACS staining of yeast displaying PDL1 with purified LTβR-IgG1 fusion protein

T1 sequence (Q9NZQ7 19-238 limits assumed): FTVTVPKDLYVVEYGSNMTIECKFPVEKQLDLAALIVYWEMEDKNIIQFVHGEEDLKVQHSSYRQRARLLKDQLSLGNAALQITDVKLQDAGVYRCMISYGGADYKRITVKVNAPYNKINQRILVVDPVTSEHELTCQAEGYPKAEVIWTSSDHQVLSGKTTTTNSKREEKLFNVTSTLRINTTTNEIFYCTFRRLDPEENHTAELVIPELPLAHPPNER

- binding result: no binding
B1: LTβR-IgG1 fusion protein (Fc fusion, UniProt P36941 31-227, looked up)
chain: QAVPPYASENQTCRDQEKEYYEPQHRICCSRCPPGTYVSAKCSRIRDTVCATCAENSYNEHWNYLTICQLCRPCDPVMGLEEIAPCTSKRKTQCRCQPGMFCAAWALECTHCELLSDCPPGTEAELKDEVGKGNNHCVPCKAGHFQNTSSPSARCQPHTRCENQGLVEAAPGTAQSDTTCKNPLEPLPPEMSGTMLM
notes: Purified fusion protein; also called LTBR-IgG1 fusion protein; not shown: IgG1 part of the fusion
